Key:
Test in all cases: fluorescence polarization; FP: 10 nM DNA, 20 mM Tris-HCl pH 8.0, 50 mM NaCl, 5% glycerol, 1 mM TCEP, 30 min at 25 C
[1] = molecular target: DNMT3BΔ570 WT;DNMT3L MTase-like domain (human;human, UniProt Q9UBC3;Q9UJW3 571-853;179-379, |); details: protein: recombinant;recombinant; tags: 6xHis-SUMO removed by TEV;6xHis removed by TEV; chain copies: 2;2; label: 3'-FAM
[2] = molecular target: DNMT3BΔ214 R823G;DNMT3L MTase-like domain (human;human, UniProt Q9UBC3;Q9UJW3 215-853;179-379, R823G|); details: protein: recombinant;recombinant; tags: tag (if any) removed by TEV;6xHis removed by TEV; chain copies: 2;2; label: 3'-FAM
DNMT3BΔ214 R823G;DNMT3L MTase-like domain, sequence (Q9UJW3 179-379, chain 2 of 2, other chains not shown): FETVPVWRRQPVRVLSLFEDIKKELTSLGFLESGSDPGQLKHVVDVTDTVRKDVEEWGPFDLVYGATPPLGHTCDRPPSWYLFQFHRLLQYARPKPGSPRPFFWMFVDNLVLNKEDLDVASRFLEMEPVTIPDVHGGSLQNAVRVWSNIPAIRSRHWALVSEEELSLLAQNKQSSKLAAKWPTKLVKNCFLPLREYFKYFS

[3] = molecular target: DNMT3BΔ214 D817G;DNMT3L MTase-like domain (human;human, UniProt Q9UBC3;Q9UJW3 215-853;179-379, D817G|); details: protein: recombinant;recombinant; tags: tag (if any) removed by TEV;6xHis removed by TEV; chain copies: 2;2; label: 3'-FAM
DNMT3BΔ214 D817G;DNMT3L MTase-like domain, sequence (Q9UJW3 179-379, chain 2 of 2, other chains not shown): as above

[4] = molecular target: DNMT3BΔ214 WT;DNMT3L MTase-like domain (human;human, UniProt Q9UBC3;Q9UJW3 215-853;179-379, |); details: protein: recombinant;recombinant; tags: tag (if any) removed by TEV;6xHis removed by TEV; chain copies: 2;2; label: 3'-FAM
DNMT3BΔ214 WT;DNMT3L MTase-like domain, sequence (Q9UJW3 179-379, stated change not applied, chain 2 of 2, other chains not shown): as the sequence (Q9UJW3 179-379, chain 2 of 2, other chains not shown) above

[5] = molecular target: DNMT3BΔ214 V818M;DNMT3L MTase-like domain (human;human, UniProt Q9UBC3;Q9UJW3 215-853;179-379, V818M|); details: protein: recombinant;recombinant; tags: tag (if any) removed by TEV;6xHis removed by TEV; chain copies: 2;2; label: 3'-FAM
DNMT3BΔ214 V818M;DNMT3L MTase-like domain, sequence (Q9UJW3 179-379, chain 2 of 2, other chains not shown): as above

[6] = molecular target: DNMT3BΔ570 R823G;DNMT3L MTase-like domain (human;human, UniProt Q9UBC3;Q9UJW3 571-853;179-379, R823G|); details: protein: recombinant;recombinant; tags: 6xHis-SUMO removed by TEV;6xHis removed by TEV; chain copies: 2;2; label: 3'-FAM
DNMT3BΔ570 R823G;DNMT3L MTase-like domain, sequence (Q9UJW3 179-379, chain 2 of 2, other chains not shown): as above

[7] = molecular target: DNMT3BΔ214 H814R;DNMT3L MTase-like domain (human;human, UniProt Q9UBC3;Q9UJW3 215-853;179-379, H814R|); details: protein: recombinant;recombinant; tags: tag (if any) removed by TEV;6xHis removed by TEV; chain copies: 2;2; label: 3'-FAM
DNMT3BΔ214 H814R;DNMT3L MTase-like domain, sequence (Q9UJW3 179-379, chain 2 of 2, other chains not shown): as above

DNMT3BΔ570 WT;DNMT3L MTase-like domain, sequence (Q9UJW3 179-379, stated change not applied, chain 2 of 2, other chains not shown): as the sequence (Q9UJW3 179-379, chain 2 of 2, other chains not shown) above

B1: 49-bp FAM dsDNA (dsDNA)
DNA 1: AAAACGAAAAAAAAAAAAAAAAAAAAAAAAAAAAAAAAAAAAAAAAAAA
DNA 2: TTTTTTTTTTTTTTTTTTTTTTTTTTTTTTTTTTTTTTTTTTTCGTTTT
Q: B1 was tested. Which Kd [1] did it give?
A: Its Kd is 0.07 ± 0.007 µM.

Q: And the Kd [2]?
A: Its Kd is 5.39 ± 0.58 µM.

Q: And the Kd [3]?
A: Its Kd is 58 ± 6.15 µM.

Q: What about the Kd [4] of the same binder?
A: The Kd was 2.73 ± 0.26 µM.

Q: What about the Kd [5] of the same binder?
A: Its Kd is 7.21 ± 0.78 µM.

Q: What about the Kd [6] of the same binder?
A: Its Kd is 0.171 ± 0.008 µM.

Q: What about the Kd [7] of the same binder?
A: The Kd was 299 ± 55.8 µM.
